# In patent US20090220532A1 (PROYECTO DE BIOMEDICINA CIMA S L, published 2009):
# B1: EDA-SIINFEKL-6xHis fusion protein (recombinant proteinaceous vector) (ligand)
# chain: MNIDRPKGLAFTDVDVDSIKIAWESPQGQVSRYRVTYSSPEDGIRELFPAPDGEDDTAELQGLRPGSEYTVSVVALHDDMESQPLIGIQSTQLESIINFEKLTEWAAALEHHHHHH
# Target: human TLR4 (Toll-like receptor 4) on HEK293 cells expressing human TLR4-MD2-CD14 (human, UniProt O00206 24-839)
# Test: cell-based or functional assay
# Sequence of human TLR4 (Toll-like receptor 4) on HEK293 cells expressing human TLR4-MD2-CD14 (O00206 24-839): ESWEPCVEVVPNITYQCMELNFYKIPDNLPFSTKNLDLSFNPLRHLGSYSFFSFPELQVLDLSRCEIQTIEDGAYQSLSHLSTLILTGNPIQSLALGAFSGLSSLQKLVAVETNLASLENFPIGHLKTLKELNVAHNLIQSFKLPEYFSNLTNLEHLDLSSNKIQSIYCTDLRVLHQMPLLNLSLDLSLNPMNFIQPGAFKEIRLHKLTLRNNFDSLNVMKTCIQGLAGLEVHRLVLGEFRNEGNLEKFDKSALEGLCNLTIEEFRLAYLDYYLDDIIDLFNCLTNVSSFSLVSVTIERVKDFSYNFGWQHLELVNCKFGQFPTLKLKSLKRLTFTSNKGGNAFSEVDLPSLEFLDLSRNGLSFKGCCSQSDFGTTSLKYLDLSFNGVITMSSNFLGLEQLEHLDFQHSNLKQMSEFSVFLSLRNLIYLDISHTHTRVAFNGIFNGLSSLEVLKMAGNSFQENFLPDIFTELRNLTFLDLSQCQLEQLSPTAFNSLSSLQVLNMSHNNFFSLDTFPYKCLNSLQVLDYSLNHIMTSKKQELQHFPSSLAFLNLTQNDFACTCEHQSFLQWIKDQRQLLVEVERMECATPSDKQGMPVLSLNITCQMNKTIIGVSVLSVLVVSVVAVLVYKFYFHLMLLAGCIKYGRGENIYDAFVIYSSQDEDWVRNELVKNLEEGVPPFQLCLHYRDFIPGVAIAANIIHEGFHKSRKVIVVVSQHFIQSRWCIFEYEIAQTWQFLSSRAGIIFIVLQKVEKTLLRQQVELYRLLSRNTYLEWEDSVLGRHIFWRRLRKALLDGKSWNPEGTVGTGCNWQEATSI
binder,measurement,value
B1,"fold NF-κB induction factor (SEAP reporter under NF-κB-inducible ELAM-1 promoter; OD of HEK293/TLR4-MD2-CD14 supernatants divided by OD of HEK293/LacZ supernatants), 100 nM EDA-SIINFEKL",7 fold
